The test system of the data set is RsmA (His6-Thb-RsmA) (Pseudomonas aeruginosa). Nature of the data set: EMSA. Particulars: 17 nt 3' extension hybridized to DNA primer.

With RsmW sRNA, 3'-extended, labeled, the Kd came to 11.5 nM.

The Kd is the free concentration of one partner at which half of the binding sites on the other are occupied at equilibrium, for simple one-to-one binding. Low readings indicate tighter binding, high ones weaker binding.

The values are drawn from publication PMC4950607.
